In the nanobody polyreactivity screen of Harvey et al. (2022):

Assay: yeast display, Sf9 membrane polyspecificity reagent, FACS + sequencing; frameworks hold sequencing errors
How it was run: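 Genes from sorted yeast were amplified by colony PCR, read by MiSeq 2 × 250 sequencing and filtered on CDR length. These cells carried a synthetic nanobody library in Saccharomyces cerevisiae BJ5465 and were sorted by FACS into low and high (top ~1%) gates on anti-HA and streptavidin fluorescence. Polyreactivity is labelled according to the gate of origin.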

Sequence	polyreactivity (PSR sort gate)
QDQLVESGGGLVQAGGSLRLSCAASGSIFIQYAMGWYRQAPGKERQFVAAITSGGGSTYYADSVKGRFTISRDNAMNTVYLQLNSLKPEDTAVYYCAVDRTRRPALPFVTLDRGYWGQGTQVTVSS	low polyreactivity
QDQLVESGGGLVQAGGSLRLSCAASGSIFPDYVMGWYRQAPGKERELVAAISASGGSTYYADSVKGRFTISRDNEKNTVYLKMNSLKPEDTAVYYCNASPKTYLRRKYDYWGQGTQVTVSS	high polyreactivity
QDQLVESGGGLVQAGGSLRLSCAASGSIFPSNTMGWYRQAPGKERELVAAITGSGGSTYYADSVKGRFTISRDNAKNTVYLQMNSLKPEDTAVYYCAARYRVDGVKYGYWGQGTQVTVSS	high polyreactivity
QDQLVESGGGLVQAGGSLRLSCAASGSIFRVYAMGRYRQAPGKERELVAAISSIVGSTYYADSVKGRFTISRDNAKNSVYLQMNSLKPEDTAVYDCNKEGTWPRTGSEYDSWGQGSQVTVSS	low polyreactivity
QDQLVESGGGLVQAGGSLRLSCAASGSIFSFYAMGWYSQATGKERELVAGIRWRGGTSTFYADSVKGRFTISRDNEKNTVYLQMNSLNPEDTAVYYCADKRRTGGNGYWGQGTQVTVSS	high polyreactivity
QDQLVESGGGLVQAGGSLRLSCAASGSIFTYNAMGWYRPAPGKERELVAAINTSGSTNYADSVKGRFTISRDNAKNTVYLQKYSLKPEDTAVYYCAAGIVVTVYDYWRQGTQVTVSS	low polyreactivity
QDQLVESGGGLVQAGGSLRLSCAASGSIFVNNAMGWYRQAPGKERELVAAISRSGGNTYYADSVKGRFTISRDNAKNTVYLQMNSLKPEDTAVYYCAADFRGRYGYWGQGTQVTVSS	high polyreactivity
QDQLVESGGGLVQAGGSLRLSCAASGSIFWYYGMGWYRQAPGKERELVAAISSGGSTNYADSVKGRFAISRDNAKNTVYLQMNSLKPEDTAVYYCAVRFTFPRYPASYSRYYYWGQGTQVTVSS	high polyreactivity
QDQLVESGGGLVQAGGSLRLSCAASGSIFYAYTMGWYRQAPGKEMELVASITKSGGSTYYADSVKGRFTISRDNAKNTVYLQMNSLKPEDTAVYYCAAVVGRNRTRSYGYWGQGTQVTVSS	high polyreactivity
QDQLVESGGGLVQAGGSLRLSCAASGSIFYRNAMGWYIQATGKERELVAAISSDGSTNYADSVKGRFTISRDNAKNTVYLQMNSLKPEDTAVYFCAAPWTQILDYWGQGTQVTVSS	low polyreactivity
QDQLVESGGGLVQAGGSLRLSCAASGSLFDLYAMGWYRQAPGKERELVAAISWSDSRTYYADSVKGRFTISRDNAKNTVYLQMNSLKPEDTAVYYCAADYRYPDNYGGYDYWGQGTQVTVSS	low polyreactivity
QDQLVESGGGLVQAGGSLRLSCAASGSTFETNAMGWYRQAPGKERELVAAISGRGGSTYYADSVKGRFTFSRDNAKNTVYLQMNSLKPEDTAVFYCDATYGTGRRSKYGYCGQGTQVTVSS	high polyreactivity
QDQLVESGGGLVQAGGSLRLSCAASGSTFGDYTMGSYRQAPGKEREFVAAITVSVGSTYFADSVKGRFTISRDTAKNTVYLQMNSVKPEDTAFYYCNTDRDPYYHYFDGLYYYWGQGTQVTVSS	low polyreactivity
QDQLVESGGGLVQAGGSLRLSCAASGSTFGFNAMGWDRQAPGKERELVAAITWSGGSTYYADSVKGRFTISRDNAKNTVYLQMNSLKPEDTAVYYCARETYGDYVHYDYWGQGTQVTLSS	low polyreactivity
QDQLVESGGGLVQAGGSLRLSCAASGSTFKKYALGWYRQAPGKERELVAAITGSGGRTYYADSVKGRFTISRDNAKNTVYLQMNSLKPEDTAVYYCAARRYLSGGYYYCGQGTQVTVSS	high polyreactivity
QDQLVESGGGLVQAGGSLRLSCAASGSTFNAYAMGWYRQAPGKERQLVASITKSGGRTYYADSVKRRFTISRDNAKNTVYLQMNRLKPEDSAVYYCAARYVWRSTHHRGSTYDYWGQGTQVTVSS	high polyreactivity
QDQLVESGGGLVQAGGSLRLSCAASGSTFNIYAMGWYRQAHGTVRELVARITSGGSTNYADSVKGRFTISRDNAKNTVYLQMKSLKPEDTAVYYCAARLKWGLPTYDYWGQGTQVTVSS	high polyreactivity
QDQLVESGGGLVQAGGSLRLSCAASGSTFPYNVMGWYRQAPGKEREFVAAISSSSGSTYYADSVKGRFTISRDNAKNTVYLQLNSLKPEDTAVYYCARRHPRQRQDGKVDYWGQGTQVTVSS	low polyreactivity
QDQLVESGGGLVQAGGSLRLSCAASGSTFRRYTMGWYRQAPGKERELVAVITKSGGSTYYADSVKGRFTISRDNAKNTVYLQMNRLKPEDTAVYYCAAGVAWRFYSWLGHFNGFDYWGQGTQVTVSS	high polyreactivity
QDQLVESGGGLVQAGGSLRLSCAASGSTFSYYAMGWYRQAPGKERELVAAITWSDGSTYYADSVKGRFTISRDYAKNTVYLQMNSLKPEDTAVYYCNAEISQLDGVTFKYDYWGQGTQVTVSS	low polyreactivity
QDQLVESGGGLVQAGGSLRLSCAASGSTFVKYAMGWYRQAAGTERELVASITKRGGSTYYADSVKGRFTISRDKAKNTVYLQMNSLKPEDTAVYYCNAARGLYNAPKYGSIGFDYWGQGTQVTESS	high polyreactivity
QDQLVESGGGLVQAGGSLRLSCAASGSTFWFYAMGWSRQAPGKEWELVAVISNSGSTYYADSVKGRFTISRDNAKNTVYLQLNSLKPEDTAVYYCNTDGGGDSYWYDYWGQGTQVTVSS	low polyreactivity

Sequence	polyreactivity (PSR sort gate)
QDQLVESGGGLVQAGGSLRLSCAASGSTISGSAMGWYRQAPGKVRELVATMSRGGSTTYADSVKGRFTISRDNAKNTVYLQMNSLKPEDTAVYYCAAQTYVWWVKYHSGGQGTQVTVSS	low polyreactivity
QDQLVESGGGLVQAGGSLRLSCAASGSTIYAYAMGWYRQAPGKERELVARIRWRGGRTYYADSVKGRFTISRDNAKNTVYLRMNSLKPEDTAVYYCAAYKRRSNGRYWTYDYWGQGTQVTVSS	high polyreactivity
QDQLVESGGGLVQAGGSLRLSCAASGSTLAYNAKGWYRPAPGKERELVAGIRGSGGSTYYADSVKGRFTISRDNAKNTVYLLMNSLKPEDTAVYDCAAAGYYYYLYAAYYYWGQGTQVTVSS	low polyreactivity
QDQLVESGGGLVQAGGSLRLSCAASRNIFYINTMGWYIQAPGKERALVAAIDASDGTTYYADSVKGRFTISRDNAKNTVYLQMNSVKPEDTAVYYCATRRGYDSVYYFYTLWYYYWGQGTQVTVSS	low polyreactivity
QDQLVESGGGLVQAGGSLRLSCAASVITFDLYAMGWYRQAPGKERELVAAISISSTSTYYADSVKGLFTISRDNAKNTVYLQMISLKPEDTAGYYCNAVPSSKTFWFDYWGLGTQVTVSS	low polyreactivity
QDQLVESGGGLVQAGGSLRLSCAASVSIFGYYAMGWYRQAHGKERELVADITSSGSTYYADSVKGRFTISRDNAKNTVYLQMNSLKPEDTAVYYCAADQYYLGSIDGFEYWGQGTQVTVSS	low polyreactivity
QDQLVESGGGLVQAGGSLRLSCAAYGRTFVPYAMGWYRQAPGKEREFVAVITWGGGSTYYADSVKGRFTISRDNAKNTVYLQMNSLKPEDTAVYYCAARNRRATGLGSRYGYWGQGTQVTVSS	high polyreactivity
QDQLVESGGGLVQAGGSLRLSCAAYGSIFYVYAMGWYRQAPGKERELVAAIRRTGSSTYYADSVKGRFTISRDNAKNTVSLQMNSLKPEDTAVYYCAASYWRARAGSYDYWGQGTQVTVSS	high polyreactivity
QDQLVESGGGLVQAGGSLRLSCADYGNLVYNAKGWSRQAPGKERELVAAISARGGRTYYADSVKGRFTISRDNAKNTVYLQMNSLNPEDTAVYYCAARSYRLDSYYWGQGTQVSVSS	high polyreactivity
QDQLVESGGGLVQAGGSLRLSCAPSGFILATNAMGWYRPAPGKERELVAAISYSCGSTNYADSVKGRFTISRDNAKNTVYLQMISLKPVDTAVYYCNDGGSVIWAWYGPVYSWGQGTQVTVSS	low polyreactivity
QDQLVESGGGLVQAGGSLRLSCASSGFTFYVYAMGWYRQAPGKERELVAAISRSGSRTYYADSVKGRVTISRDNAQKTVYLQMNSLKPEDTAVYYCARVRPRGLYFVLHYDYWGQGTQVTVSS	high polyreactivity
QDQLVESGGGLVQAGGSLRLSCASSGRIFRWYAMGWYRQATGKERELVAAISWSGDSTYYADSVKGRFSISRDNAKNNVYLEMNSLKPEDTAVYYCNYVLYKSDYWGQGTQVTVSS	high polyreactivity
QDQLVESGGGLVQAGGSLRLSCSASGFTITHNAMGWYRQAPGKEREFVATISRSGGRTYYADSVKGRFTISRDNAKNTVFFQMNSLKPEDTPVYYCAARTSGYWYSYGSWGQGTQVTVSS	high polyreactivity
QDQLVESGGGLVQAGGSLRLSFAASGFTFDHYAMGWSRQAPGKEREYVARITGTGDSTYYADSVKGRFTISRDNAKNTVYLQMNSLKPEDTAVYYCAKDFTGHYPNGFDYWGQGTQVTVSS	low polyreactivity
QDQLVESGGGLVQAGGSLRLSFAASGRIIYYNAMGWYRQAPGKERELVAAISFSDGSTYYADSVKGRFTISRDNAKKTVYLQMNSLKPEDTAVYYCAADIGYYYDYWGQGTLVTVSS	low polyreactivity
QDQLVESGGGLVQAGGSLRLSFAAYGSTFIVYAMGWYRHAPGKERDLVAAISLDGGSTYYADSVKGRFTISLDNAKNNVYLQMNSLKPEDTAVYYCNADYYANSITYDSWGQGTQVTVSS	low polyreactivity
QDQLVESGGGLVQAGGSLRLSGAASGRIFGYYAMGWYRQPPGKETELVARISSGGGSTYYADSVKGRFTISRDNAKNTVYLQLNSLKPEDTAVDYCATVLYPYSPRYDYWGQGTLVTVSS	high polyreactivity
QDQLVESGGGLVQAGGSLRLSGAASGRTFRRYAKGWDRQAPGKEREWVATISSGGSTYYADSVKGRFTISRDNAKNTVYLQMNSLKPEDTALYYCAVRYWRAYYRYDYWGQGTQVTVSS	high polyreactivity
QDQLVESGGGLVQAGGSLRLTCAASGFIFDRNTMGLYRQATGNDTELVAAISRSGGSTYYSDSVNGRFTISRDNAKNTVYLQMNSMKPEDTAVYNCGALYYYRNRSYYYWGQGTHVTVSS	high polyreactivity
QDQLVESGGGLVQAGGSLRLTCAASGGIFWSYAMGWYRQAPGKERDLVAAINWNAGSTYYADSVKGRFTISRDNAKNTVYLQMNSLKPEDTAVYYCAKVQWHLYDWGQGTQVTVSS	high polyreactivity
QDQLVESGGGLVQAGGSLSLSCAASGLIFSDNAMGWYRQAPGKERELVATITFSGSTNYADSVKGRFTISRDNAKNTVYLQMNSLKPEDTAVFFCAADAGGGPFEYWGQGTHVTVSS	low polyreactivity
